From paper PMC6049616

Target: semiSWEET
Experiment: native MS

stoichiometry N: 2
Substance: semiSWEET (natural protein)
